Experimental data as given in the supplement of paper PMC12042874.
± gives the uncertainty stated by the source.

Assay: amyloid nucleation score (Sup35N fusion, yeast selection) (log enrichment); library NNK3; higher = more nucleation; inactive = no reads after selection
Outline: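 Peptides of 20 random codons fused to Sup35N were expressed in psi-negative yeast, induced 24 hours with 100 μM copper sulfate, then grown 7 days at 30°C on medium lacking adenine and uracil. Input and output plasmid inserts were Illumina-sequenced. Nucleation score is the DiMSum log enrichment of output over input reads, centred on the mode score of non-aggregating sequences, excluding sequences with under 100 input reads. Random libraries had three technical output replicates.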

ANESMWYSLMLTVFVLAGCM
amyloid nucleation score: inactive

SNRYKVCWCCPFLFRGVTRL
amyloid nucleation score: 1.94 ± 0.093

LVGGTTLLIPVCS
amyloid nucleation score: inactive

VVWDGMQIGSWPQ
amyloid nucleation score: inactive

WFFMNVLASENKYFVLCCKA
amyloid nucleation score: inactive

GWAGGSLNARMSRWF
amyloid nucleation score: 0.881 ± 0.17

VIKVWLLCRRIVSVQFLAP
amyloid nucleation score: inactive

LRGGMIEPNTRRYS
amyloid nucleation score: 1 ± 0.15

IEGTAMTVTFTFNPYPFHET
amyloid nucleation score: inactive

SPGLMRYRRTPLAKSLPWMK
amyloid nucleation score: inactive

LAVLIVDKPYADETHRLLVR
amyloid nucleation score: inactive

VPKFVMDMIL
amyloid nucleation score: inactive

WRVFVIRYKKSMYAETGKVK
amyloid nucleation score: inactive

VAGLSRHIRIFHYYHSRARF
amyloid nucleation score: inactive

SVIAMYQFVYYYVSKMVNID
amyloid nucleation score: inactive

FMNCWQRAGVRSLGVYGNSA
amyloid nucleation score: 0.13 ± 0.45

TSLLILRCSGE
amyloid nucleation score: inactive

LFNDLVAHKGPDYITYATCV
amyloid nucleation score: inactive

HKFFAYDGGDRKRGIFGGWL
amyloid nucleation score: 1.25 ± 0.1

CGYEVIGNIFGM
amyloid nucleation score: inactive

GYGSAQCQFRWWYCFE
amyloid nucleation score: -0.317 ± 0.65

IYGHCCIISAWVWGNESLVL
amyloid nucleation score: inactive

DCWHLRQLWGVMSCQ
amyloid nucleation score: 0.48 ± 0.42

FQIWCIFYLNMS
amyloid nucleation score: 2 ± 0.095

FDTWFLRFRTNDVYLKVFFY
amyloid nucleation score: inactive

DLTTFQDMSTCTLWVTSGYT
amyloid nucleation score: inactive

VVTNG
amyloid nucleation score: 0.408 ± 0.17

SARGCTNSSSNGLGRGHQTG
amyloid nucleation score: inactive

VRPELMALTDI
amyloid nucleation score: inactive

FYKGKG
amyloid nucleation score: inactive

KITSRGCN
amyloid nucleation score: inactive

MMVVNRGDHQDGGEAYEVV
amyloid nucleation score: inactive

VYLRHWAIYVIESVLQGSCR
amyloid nucleation score: inactive

YSCVEDSGCVCKNPLVISEF
amyloid nucleation score: inactive

ENALRLRQVGQILGLNCRIV
amyloid nucleation score: inactive

STSYYPDVRVATRSSYWHFT
amyloid nucleation score: 1.14 ± 0.18

LVILMSSHIEFLGTYFNEKL
amyloid nucleation score: inactive

ILRFMYAVHDISFFYLIVCF
amyloid nucleation score: inactive

NIDVYDLMRLSVFDNKMATG
amyloid nucleation score: inactive

LESEASGYKMSKVRVAQCRR
amyloid nucleation score: inactive

RDSCFNIDFKEEVVRKVSMA
amyloid nucleation score: 0.827 ± 0.18

FDVRDRSRIGLSMTITWMKI
amyloid nucleation score: inactive

SRWVLSWSIVITIHLDMRSL
amyloid nucleation score: inactive

WKYWIWVFMNATYMDCVGML
amyloid nucleation score: inactive

PMHGGTSSQSYNNLLRRSVK
amyloid nucleation score: inactive

RNTDLL
amyloid nucleation score: inactive

AKSKSIRERLVVFEASQTRY
amyloid nucleation score: inactive

ACSRRERY
amyloid nucleation score: inactive

KSGICGCVGHLVHKPMQLRV
amyloid nucleation score: inactive

DGFLKLEFAFQCFTRLCLAF
amyloid nucleation score: inactive

LCSDLVFHNR
amyloid nucleation score: inactive

GMAETRWGLRKIWKVAGARI
amyloid nucleation score: -0.85 ± 1.9

VVLDYVSYAVIHGWEM
amyloid nucleation score: inactive

YIWLKGNIRRSQWLLSLPFM
amyloid nucleation score: inactive

WGLTMLRESRVCCKSYNKQG
amyloid nucleation score: inactive

MNKFLSVAIQGIYVERNAHV
amyloid nucleation score: 1.34 ± 0.11

HLTIVDWSPRESSSWIMRFT
amyloid nucleation score: inactive

LGGLCPCF
amyloid nucleation score: inactive

AKYIEHGYCF
amyloid nucleation score: inactive

LIINIHDRLLVRVPLWDWLR
amyloid nucleation score: inactive

NYVLPIVCL
amyloid nucleation score: inactive

WVHVRPKHCTSGLVTKFANM
amyloid nucleation score: inactive

TCCLIF
amyloid nucleation score: 1.87 ± 0.073

VCIWSIETNVCSGCVKIKGF
amyloid nucleation score: inactive

WISFFT
amyloid nucleation score: inactive

VENGCGAT
amyloid nucleation score: inactive

PIFFMIVYAVATYCKEGSHS
amyloid nucleation score: inactive

RWNLDWSSLSAGHGKYSQEY
amyloid nucleation score: inactive

PLGVRQQWEGSQVDPCGLRA
amyloid nucleation score: inactive

ARFLYAVVLRWFIMEYRAGT
amyloid nucleation score: inactive

LFWSNLWRRDMNISVSNYWL
amyloid nucleation score: 1.69 ± 0.11

SYHYFGRYCGFR
amyloid nucleation score: inactive

RRIFCLLVANDRLSMRVKCP
amyloid nucleation score: inactive

TSNIHY
amyloid nucleation score: inactive

GLLFCSL
amyloid nucleation score: -0.248 ± 0.34

KWNHYWDIVFCTSYFNSTFM
amyloid nucleation score: 2.29 ± 0.066

WLVPR
amyloid nucleation score: inactive

RIINCDKLSQTTALYIKTFM
amyloid nucleation score: inactive

LKWNTTSVNVVYLSFIIGRQ
amyloid nucleation score: 2.15 ± 0.086

SGVMNWKT
amyloid nucleation score: inactive

VSNECVPWAPYGIGGF
amyloid nucleation score: inactive

NENYVIAGC
amyloid nucleation score: inactive

AYIKWNVDCRLKTHNDGYFL
amyloid nucleation score: inactive

EVVLFKYVVL
amyloid nucleation score: 0.848 ± 0.19

ITESIVQFLAFWVRDTDYVC
amyloid nucleation score: inactive

FGEFKDCQGFSKF
amyloid nucleation score: inactive

MTGDPGQFNAGDRLM
amyloid nucleation score: inactive

YVSSAILRNRVLCHCYFTML
amyloid nucleation score: inactive

NYSRFGNKKFYHP
amyloid nucleation score: inactive

CRWNVNNFPHLFITKMMFRY
amyloid nucleation score: inactive

PSFMLVVIKVTYVMADSNMR
amyloid nucleation score: inactive

ITCGIKIFF
amyloid nucleation score: 2.76 ± 0.068

FFLYLSKRLCVFCRCTYLGL
amyloid nucleation score: inactive

YTALHWLYFVSCKFDEKVQW
amyloid nucleation score: inactive

MKCFSVSVLCNLGSFLCEVT
amyloid nucleation score: 0.146 ± 0.9

VFCKNLNYALRMPSKWGLYT
amyloid nucleation score: inactive

NRVSGALKPLVVS
amyloid nucleation score: inactive

TDFTYSLTFVYKLGEKTVDI
amyloid nucleation score: inactive

LSAIFLCLSVCLGLHCVGLP
amyloid nucleation score: inactive

DNFVY
amyloid nucleation score: inactive

SSFAGVFNFRDGTQSQILYV
amyloid nucleation score: inactive

YRSKNFMIQRWTRVVLRAWM
amyloid nucleation score: inactive

ELIWAEGYRKSCKLGPVIS
amyloid nucleation score: inactive

RFDWRLSCTGRNMVASLLFV
amyloid nucleation score: inactive

GSGMGL
amyloid nucleation score: inactive

RYRLSMELT
amyloid nucleation score: inactive

HPGFTWY
amyloid nucleation score: inactive

LTICAFVVYVFIYKYKMGVM
amyloid nucleation score: inactive

TLLLMSWHFGYMRAQF
amyloid nucleation score: 3.14 ± 0.05

TFKLD
amyloid nucleation score: inactive

HWAVRH
amyloid nucleation score: 0.212 ± 0.42

ALHFDFIFIYRDRCCCCTFY
amyloid nucleation score: 1.27 ± 0.1

VRRIIML
amyloid nucleation score: inactive

LCVFKWLILREYISITHDSI
amyloid nucleation score: inactive

RRVNFVNYSLWV
amyloid nucleation score: 1.6 ± 0.1

QLHTDYPFGACLFSCDGLDM
amyloid nucleation score: inactive

ECRYRTRR
amyloid nucleation score: inactive

RKSGYFP
amyloid nucleation score: inactive

GAFSWCSRVVDMVRLTRCDH
amyloid nucleation score: inactive

MVFAMTYVLCDDMWSVIGHF
amyloid nucleation score: 0.141 ± 0.26

YDSLFCLSSHLGWCNRALPE
amyloid nucleation score: 0.977 ± 0.13

LSYSAGEIRCVGSCWANESL
amyloid nucleation score: inactive

VISLRLVLNWNVTGVSLLGW
amyloid nucleation score: 0.611 ± 0.16

PYSIVSGPRIFYGCYHSFI
amyloid nucleation score: inactive

FFLAGLFCAISV
amyloid nucleation score: inactive

RMVRRDRNKYSILLGLVMSN
amyloid nucleation score: inactive

ISVNALYNLMHKCNYNAKLR
amyloid nucleation score: inactive

SLDCCNGVDRFKVSNILHYP
amyloid nucleation score: inactive

MVGRGEQVM
amyloid nucleation score: inactive

MICHDLRSFIM
amyloid nucleation score: inactive

TNYWNHVVYVTGNVCDP
amyloid nucleation score: inactive

SLVYMWPDGTFLRWMGAWH
amyloid nucleation score: inactive

VTASSPDLIGGVHMEWRLTC
amyloid nucleation score: inactive

PNGREWIMKYVGDAGYRVLS
amyloid nucleation score: 0.515 ± 0.36

LLANDSWF
amyloid nucleation score: inactive

NLGLRGPLLAMKCMIACYVQ
amyloid nucleation score: inactive

RVREPSVAVRECWCYLGDAV
amyloid nucleation score: inactive

SFNSRIIKRDDCFMDLIFWT
amyloid nucleation score: 1.07 ± 0.12

SYRIRCYAVNITPIAMYIIC
amyloid nucleation score: inactive

PHTWGGR
amyloid nucleation score: inactive

TKADEHYESIYTLCCHFVSP
amyloid nucleation score: inactive

WQWVM
amyloid nucleation score: inactive

VFVDYCNKYGEFVSGTAQVS
amyloid nucleation score: inactive

LYLVGIMYASTQYTWRQLIN
amyloid nucleation score: inactive

TLNIRCRRFVFVWDATNSV
amyloid nucleation score: 2.88 ± 0.064

PRLAIKAHGVWVGKSFIGET
amyloid nucleation score: inactive

NWWIRGS
amyloid nucleation score: -0.185 ± 0.82

KVRSARVRMHHNRYDKEMSG
amyloid nucleation score: inactive

RCSLLRNIG
amyloid nucleation score: inactive

LNCIFLVKVIYWTRFTWSTY
amyloid nucleation score: inactive

CCRDVYTEGDM
amyloid nucleation score: inactive

RSIYCLRVNTGYMNKFVVLR
amyloid nucleation score: inactive

NIVSFVGDVFHSLLVG
amyloid nucleation score: inactive

KCYLKSGLDNLVYDLD
amyloid nucleation score: inactive

TLFADNAVQIVLERSLRGCG
amyloid nucleation score: inactive

IVYLDIDVFFMFLCVASRTE
amyloid nucleation score: 1.59 ± 0.081

LTSMNSGLSYLKLFASQNLR
amyloid nucleation score: inactive

WQTKIGYSGRLFDRTLGDAK
amyloid nucleation score: inactive

ACTFITRMYCGWHSS
amyloid nucleation score: inactive

TRSIVY
amyloid nucleation score: inactive
